From US20240018265A1 (FRIEDRICH MIESCHER INSTITUTE FOR BIOMEDICAL RESEARCH, published 2024)
Where a chain is given by its changes, count along the chain named. Names may count otherwise.

What was measured:
[1] = biological target: T1, Purified His-tagged human HDAC6 ZnF domain (1108-1215) (human, UniProt Q9UBN7 1108-1215); test: pull-down with anti-Flag agarose beads from a mix of His-ZnF (1108-1215), Flag-DARPin and mono-ubiquitin; immunoblot with anti-His, anti-ubiquitin and anti-Flag
T1 construct: range 1108-1215; also called ZnF-UBP; His-HDAC6 ZnF (1108-1215); not shown: His tag from vector pOPINF
T1 sequence (looked up): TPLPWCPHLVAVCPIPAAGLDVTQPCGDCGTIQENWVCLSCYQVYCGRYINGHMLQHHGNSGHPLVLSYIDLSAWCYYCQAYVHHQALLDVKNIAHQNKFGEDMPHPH
Excerpt: (§1) [0013] (A) Schematic of HDAC6, showing the catalytic domains (CD1, CD2) and the zinc finger domain (ZnF) region that was expressed (amino acids 1108 to 1215) and used to identify binders. Generic nanobody and DARPin structures (PDB:1I3V and PDB:2QJY, respectively) are shown below. […] [0014] […] PD, pull-down; FT, flow-through. [0015] […] A plasmid expressing mRuby was included in all transfections as a control for transfection efficiency (red signal). Scale bar presents […]. [0016] […] [0017] […] Immunoprecipitated material (from D above) was analysed by mass spectrometry and enriched proteins are annotated.

[2] = biological target: T2, endogenous HDAC6 (A549 cells) (human, UniProt Q9UBN7 1-1215); test: GFP-trap immunoprecipitation of GFP-DARPin F10 against control GFP-DARPin E3_5 from A549 cells, mass spectrometry, volcano plot
T2 construct: Endogenous intracellular protein, not a recombinant construct; also called histone deacetylase 6
T2 sequence (looked up): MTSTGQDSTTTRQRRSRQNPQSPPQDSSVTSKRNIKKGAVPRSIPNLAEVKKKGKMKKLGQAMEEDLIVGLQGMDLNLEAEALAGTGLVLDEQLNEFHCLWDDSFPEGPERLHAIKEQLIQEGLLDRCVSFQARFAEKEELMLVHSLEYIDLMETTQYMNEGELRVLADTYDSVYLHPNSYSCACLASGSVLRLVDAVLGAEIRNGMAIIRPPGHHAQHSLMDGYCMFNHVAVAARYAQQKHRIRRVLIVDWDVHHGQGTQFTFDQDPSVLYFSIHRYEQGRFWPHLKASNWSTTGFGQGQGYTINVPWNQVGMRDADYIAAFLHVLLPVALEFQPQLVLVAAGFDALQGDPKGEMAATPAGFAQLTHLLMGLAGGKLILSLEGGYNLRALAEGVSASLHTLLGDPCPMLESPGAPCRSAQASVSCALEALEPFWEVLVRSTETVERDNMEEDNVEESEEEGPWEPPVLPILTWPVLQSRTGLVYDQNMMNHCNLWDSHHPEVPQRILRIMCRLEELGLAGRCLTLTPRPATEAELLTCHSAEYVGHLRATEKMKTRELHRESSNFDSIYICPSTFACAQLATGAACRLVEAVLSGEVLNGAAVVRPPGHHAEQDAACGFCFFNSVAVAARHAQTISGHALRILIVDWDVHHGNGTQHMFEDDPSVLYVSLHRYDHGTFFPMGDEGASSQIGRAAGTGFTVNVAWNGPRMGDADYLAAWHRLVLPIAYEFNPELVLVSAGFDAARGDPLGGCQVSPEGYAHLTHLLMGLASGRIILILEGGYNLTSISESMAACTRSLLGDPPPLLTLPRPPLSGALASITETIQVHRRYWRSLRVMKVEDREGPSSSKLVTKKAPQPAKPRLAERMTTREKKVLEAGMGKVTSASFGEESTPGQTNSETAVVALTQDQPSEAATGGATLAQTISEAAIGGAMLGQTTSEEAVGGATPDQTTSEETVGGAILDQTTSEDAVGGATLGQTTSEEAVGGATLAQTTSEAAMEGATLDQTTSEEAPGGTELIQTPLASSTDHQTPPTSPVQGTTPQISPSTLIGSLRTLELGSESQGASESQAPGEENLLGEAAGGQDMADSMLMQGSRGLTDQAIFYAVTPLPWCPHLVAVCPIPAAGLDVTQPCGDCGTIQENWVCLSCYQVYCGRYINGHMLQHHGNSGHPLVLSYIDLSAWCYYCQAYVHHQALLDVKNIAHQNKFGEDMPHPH
Excerpt: as §1

GFP(10)-ubiquitin = biological target: T3, GFP(10)-ubiquitin (UniProt P0CG48 1-76); test: split-GFP assay in 293T cells (specificity control)
T3 construct: Expressed in 293T cells; not shown: GFP beta strand 10 and any linker

B1: Flag-tagged DARPin F10 (F10 with histidine and detection tags) (designed binder)
chain: MRGSHHHHHHHHGSDLGKKLLEAARAGQDDEVRILMANGADVNANDRNGVTPLHLAADKGHLEIVEVLLKTGADVNAIDIMGATPLHLAAAHGHLEIVEVLLKAGADVNAMDHKGFTPLHLAAWRGHLEIVEVLLKHGADVNAQDKFGKTPFDLAIDNGNEDIAEVLQKAAKLNDYKDDDDK
binding result [1]: binds

B2: GFP-DARPin F10 fusion protein (designed binder)
chain: DLGKKLLEAARAGQDDEVRILMANGADVNANDRNGVTPLHLAADKGHLEIVEVLLKTGADVNAIDIMGATPLHLAAAHGHLEIVEVLLKAGADVNAMDHKGFTPLHLAAWRGHLEIVEVLLKHGADVNAQDKFGKTPFDLAIDNGNEDIAEVLQKAA
notes: Transiently expressed in A549 cells from pcDNA3.1-GFP-DARPin F10; not shown: GFP and any linker
binding result [2]: binds

B3: GFP(11)-HDAC6 ZnF (1108-1215) W1182A mutant (other, human, UniProt Q9UBN7 1108-1215, looked up)
chain: T1 sequence (looked up) with W75A
notes: range 1108-1215; Specificity control in the split-GFP assay; also called ZnFm; 1182 mutant; not shown: GFP beta strand 11 and any linker
binding result (GFP(10)-ubiquitin): no binding
